Laboratory results published in article PMC5834491, “CryoEM structure of the human SLC4A4 sodium-coupled acid-base transporter NBCe1” (Nature Communications, 2018).

Target: the molecule itself
Experiment: cryo-EM structure; single-particle cryoEM of NBCe1-A (~0.4 mg/ml) in amphipol PMAL-C8, 20 mM Tris-HCl pH 7.5, 150 mM NaCl; C2 symmetry imposed; 3.9 Å

B1: Human N-terminally Strep(II)-tagged wild-type NBCe1-A (SLC4A4 sodium-bicarbonate cotransporter) (natural protein, UniProt Q9Y6R1-2 1-1035, looked up)
chain: MSTENVEGKPSNLGERGRARSSTFLRVVQPMFNHSIFTSAVSPAAERIRFILGEEDDSPAPPQLFTELDELLAVDGQEMEWKETARWIKFEEKVEQGGERWSKPHVATLSLHSLFELRTCMEKGSIMLDREASSLPQLVEMIVDHQIETGLLKPELKDKVTYTLLRKHRHQTKKSNLRSLADIGKTVSSASRMFTNPDNGSPAMTHRNLTSSSLNDISDKPEKDQLKNKFMKKLPRDAEASNVLVGEVDFLDTPFIAFVRLQQAVMLGALTEVPVPTRFLFILLGPKGKAKSYHEIGRAIATLMSDEVFHDIAYKAKDRHDLIAGIDEFLDEVIVLPPGEWDPAIRIEPPKSLPSSDKRKNMYSGGENVQMNGDTPHDGGHGGGGHGDCEELQRTGRFCGGLIKDIKRKAPFFASDFYDALNIQALSAILFIYLATVTNAITFGGLLGDATDNMQGVLESFLGTAVSGAIFCLFAGQPLTILSSTGPVLVFERLLFNFSKDNNFDYLEFRLWIGLWSAFLCLILVATDASFLVQYFTRFTEEGFSSLISFIFIYDAFKKMIKLADYYPINSNFKVGYNTLFSCTCVPPDPANISISNDTTLAPEYLPTMSSTDMYHNTTFDWAFLSKKECSKYGGNLVGNNCNFVPDITLMSFILFLGTYTSSMALKKFKTSPYFPTTARKLISDFAIILSILIFCVIDALVGVDTPKLIVPSEFKPTSPNRGWFVPPFGENPWWVCLAAAIPALLVTILIFMDQQITAVIVNRKEHKLKKGAGYHLDLFWVAILMVICSLMALPWYVAATVISIAHIDSLKMETETSAPGEQPKFLGVREQRVTGTLVFILTGLSVFMAPILKFIPMPVLYGVFLYMGVASLNGVQFMDRLKLLLMPLKHQPDFIYLRHVPLRRVHLFTFLQVLCLALLWILKSTVAAIIFPVMILALVAVRKGMDYLFSQHDLSFLDDVIPEKDKKKKEDEKKKKKKKGSLDSDNDDSDCPYSEKVPSIKIPMDIMEQQPFLSDSKPSDRERSPTFLERHTSC
notes: Electrogenic sodium bicarbonate cotransporter 1, NBCe1-A variant, human, full length; Only the membrane domain was modelled (474 residues per protomer); Met1-Gly400, Cys583-Leu637, Ser713-Trp734, Glu814-Lys825 and Asp966-Cys1035 were not modelled. numbers count on: the NBCe1-A isoform (1035 residues); Homodimer in amphipol PMAL-C8; The pTT vector is named (Addgene), no plasmid number is printed; …
**Q.** With B1 as the protein, how does the “stoichiometry N” value read?
**A.** 2
